Results as given in US20240091270A1.

Biological target: murine CD47 on mouse pancreatic beta islet cells (MIN6) (murine) (UniProt Q61735)
Experiment: cell-based or functional assay

Chain of UniProt Q61735 (Q61735 19-303): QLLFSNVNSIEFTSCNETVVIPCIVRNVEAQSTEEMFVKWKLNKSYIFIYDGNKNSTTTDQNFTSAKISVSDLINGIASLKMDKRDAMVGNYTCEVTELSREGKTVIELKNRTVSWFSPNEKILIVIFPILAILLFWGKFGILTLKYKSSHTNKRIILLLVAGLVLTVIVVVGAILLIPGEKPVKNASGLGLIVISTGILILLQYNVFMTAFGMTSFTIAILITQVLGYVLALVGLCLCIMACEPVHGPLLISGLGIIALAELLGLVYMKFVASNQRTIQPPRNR

Q: How did the relative increase in insulin protein content in glucose stimulated mouse pancreatic beta islet cells relative to vinculin (SDS-PAGE band density) turn out when “anti-CD47 blocking antibody (clone MIAP301, SC-12731, Santa Cruz Inc.)” was run?
A: > 2 fold
